Columns and labels:
[1] = molecular target: FITC-labeled DENV2 NS5 NLS_(C-term) peptide (dengue virus serotype 2 (DENV2)); experiment: fluorescence polarisation
[2] = molecular target: FITC-labeled DENV3 NS5 NLS_(C-term) peptide (dengue virus serotype 3 (DENV3)); experiment: fluorescence polarisation

human IMPα3 lacking the IMPβ-binding domain (IMPαΔIBB), sequence (O00629 64-521, stated change not applied): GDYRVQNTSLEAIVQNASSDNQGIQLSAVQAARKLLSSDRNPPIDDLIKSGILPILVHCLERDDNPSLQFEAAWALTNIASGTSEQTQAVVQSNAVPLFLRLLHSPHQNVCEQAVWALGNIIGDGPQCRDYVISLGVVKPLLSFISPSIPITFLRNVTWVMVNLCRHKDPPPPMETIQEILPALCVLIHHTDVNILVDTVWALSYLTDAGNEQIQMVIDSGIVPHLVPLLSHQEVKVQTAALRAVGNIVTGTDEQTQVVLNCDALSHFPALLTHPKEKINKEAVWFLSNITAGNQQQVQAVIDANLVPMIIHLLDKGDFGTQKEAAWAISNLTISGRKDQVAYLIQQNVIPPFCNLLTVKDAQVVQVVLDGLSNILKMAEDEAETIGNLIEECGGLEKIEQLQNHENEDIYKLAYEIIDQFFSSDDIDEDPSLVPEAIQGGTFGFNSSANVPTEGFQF
human IMPα7 lacking the IMPβ-binding domain (IMPαΔIBB), sequence (O60684 73-536, stated change not applied): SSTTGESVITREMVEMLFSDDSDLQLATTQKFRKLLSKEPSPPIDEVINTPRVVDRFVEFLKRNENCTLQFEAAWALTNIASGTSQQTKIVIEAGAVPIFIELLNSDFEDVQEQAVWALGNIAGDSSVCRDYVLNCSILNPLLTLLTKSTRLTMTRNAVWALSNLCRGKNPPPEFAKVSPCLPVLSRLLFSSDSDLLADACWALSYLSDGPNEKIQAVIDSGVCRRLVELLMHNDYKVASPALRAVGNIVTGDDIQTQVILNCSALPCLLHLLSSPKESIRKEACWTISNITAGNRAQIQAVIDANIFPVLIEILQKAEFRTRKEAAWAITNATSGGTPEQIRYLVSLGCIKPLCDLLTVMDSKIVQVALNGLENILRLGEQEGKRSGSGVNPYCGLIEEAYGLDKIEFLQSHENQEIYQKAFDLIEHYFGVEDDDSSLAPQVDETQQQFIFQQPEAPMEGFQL

“human IMPα7 lacking the IMPβ-binding domain (IMPαΔIBB) (from UniProt O60684 73-536) (domain or fragment)” was tested, and the Kd [1] was 180 nM and the Kd [2] was 190 nM.

“human IMPα3 lacking the IMPβ-binding domain (IMPαΔIBB) (from UniProt O00629 64-521) (domain or fragment)” showed a Kd [1] of 80 nM and a Kd [2] of 150 nM.

Substance “human IMPα1 lacking the IMPβ-binding domain (IMPαΔIBB) (from UniProt P52292 70-529) (domain or fragment)” has a Kd [1] of 90 nM and a Kd [2] of 140 nM.

Source: article PMC11184549
